test: soluble on expression in E. coli; label from the status in PepcDB or PDB records

Sequence	soluble on expression in E. coli
GPGSMFDLTGRKALVTGATGGLGEAIARALHAQGAIVGLHGTREEKLKELAAELGERIFVFPANLSDREAVKALGQKAEEEMGGVDILVNNAGITRDGLFVRMSDEDWDAVLTVNLTSVFNLTRELTHPMMRRRNGRIINITSIVGVTGNPGQANYCASKAGLIGFSKSLAQEIASRNVTVNCIAPGFIESAMTGKLNEKQKDAIMGNIPMKRMGVGADIAAAVVYLASDEAAYVTGQTLHVNGGMAMI	soluble
MGSDKIHHHHHHMQDLLSQDEIDALLHGVDDGDIDTYEETDDTGVKNYDLASQDRIVRGRMPTLEMINERFARYTRISLFNLLRRNADVSTGGVQIMKFGEYIHTLYVPTSLNLCKVRPLRGTSLFVLDAKLVFKLVDNFFGGEGRHAKIEGREFTPTETRIVQMVLNQVFHDMKEAWHAVLQVEFEYLSSEVNPAMANIVSPSEVVVVSTFHIELDGGGGELHFALPYSMIEPIRDVLDAGVQSDIDDVDERWVNALQEDIKEVNVPINTTVCRRRISLRDIARMKAGDVIPVEIPEHLTVTANGIPIYKATLGTRDGKLALRIHDRAKLPKVKKQLKVGRNG	not soluble
EFRKLGEVCESTNKKTLKISEVSEVKNKGMYPVINSGRDLYGYYHDFNNDGENITIASRGEYAGFINYFNEKFFAGGLCYPYKVKDTNELLTKFLYFYLKTNEIQIMENLVFRGSIPALNKADIETLTIPIPPLEIQQEIVKILDQFSA	not soluble
NGESYNFALNSGYTKLSDNAEVKIAVDKIADLVSNMTVHLMENTEKGDIRIRDELSRKIDINPYSLMTRKTWIYNIVSNLLLYGDGNAIVLPEIKNGLISELKPLDPSLVDFDVRDDSYKIHYKNKTYNPDEVVHFAINPDSEYPFIGTGYRVALKSLVDNLNQATATKKAFMSSKFMPNLIVKVDANAAELSSEKGKNKIEDMYLQRTEEGKPWIIPADLIEIEQVKPLSLNDIAINEAVNIDKKTVAGLLGVPAFFVGVGEFDKNEFNNFINTRIMSIAMIISQTLTRDLLISPTRFFKLNPRSLYSYDITELVAAGGQMVDRIAMDRNELRDWIG	not soluble
MSEEPAAKRMKNADEFPNLRSEVAGPVKEKLIELDAIQHQLDVMSENAAEEVLKVEQIFNQKRLPIYEKRKKLTTKIDNFWQTAFLNHHLLSTAIPEEQEDLLAALRDLEVQEFEDLRSGFKIIMTFDPNEYFTNEVITKSYHLQSESPSTEITEIEWKENKKPPFKPEDGDSAHTFLEWLTYAALPDSDEIAEVIKDDLYVNPLQYYVMPDMQEVEEDDIEDFLNEERGVDENGQRIPRRNISDSLKVDQDESADGQEGEDEEEEDMGEEEEDGVEEEAEGEEEEEDGAIEEEGGDENVEAHVAVNPENTAE	soluble
MSNEVEQKKNIKTINDLPGISQTVINKLIEAGYSSLETLAVASPQDLSVAAGIPLSTAQKIIKEARDALDIRFKTALEVKKERMNVKKISTGSQALDGLLAGGIETRTMTEFFGEFGSGKTQLCHQLSVNVQLPPEKGGLSGKAVYIDTEGTFRWERIENMAKALGLDIDNVMNNIYYIRAINTDHQIAIVDDLQELVSKDPSIKLIVVDSVTSHFRAEYPGRENLAVRQQKLNKHLHQLTRLAEVYDIAVIITNQVMARPDMFYGDPTVAVGGHTLYHVPGIRIQLKKSRGNRRIARVVDAPHLPEGEVVFALTEEGIRDAEE	soluble
MSLSERIIVTYQVAAAPAEIAARAEALAIEQSVECPLAAVTEQQIRDEIVGRVEAIAPIGETRFSVRVSLASATAPAEPGQLLNMLFGNSSIQPDVTLADVELPPAYPAAFGGPKLGISGLRAKLGAPRRALTGSALKPQGLAPEALAGLAHRLALGGVDLIKDDHGIADQAFSPFAARVPAVARAMREACAVRGAAMLYAPHVSGSLDDMRRQLDIVRREGLSVVMLMPMIVGLANFHLIAKEAEGLIVLAHPSLAGAQRIAPDLLLGKLFRLLGADATIFPHYGGRFAYTPETCRALADAARRDWHDLKPCLPVPAGGIAIDRIKELLAFYGTDVMLLIGGSLLAAGEQLTEHAARFTAEVASHGQEGHHHHHH	soluble
MGSDKIHHHHHHMATANKNLKATWVATVTNLDWPSVSSVAITDEAARVSKQKEELTGILDEIVAMKMNAVIFQVVPCADAFYASDLLPWSKYLTGTLGKNPGFDPLAYAIEQAHARNIELHAWVNPYRVSMNASDATIEELNNSSSDSPASVFKTHPEWTGTAANRFVLNPGIPEVQTWVSNIVEEIVTKYDVDAIQFDDYFYYETASSLLQDDATYQKYNTNFTTKADWRRNNTYSLVDTCHKKIAAVKANVLFGVSPAGVWRNKSDDPLGSDTQAGASNYDFAYADTRKWVIDGIIDYIAPQVYWPFAREVARYDVITQWWADTVSGTGTALYIGMALYKVGTASETEPDWTVEGGVPEITRQLDLNDSLTEVSGCMLFRHMFLRASQTQQVVDYLKLRWADV	not soluble
MTTRRLALFDLDHTLLPLDSDYQWADFLARTGRAGDPAEARRRNDDLMERYNRGELTAEQAAEFMLGLLAAHSPVELAAWHEEFMRDVIRPSLTVQAVDVVRGHLAAGDLCALVTATNSFVTAPIARAFGVQHLIATDPEYRDGRYTGRIEGTPSFREGKVVRVNQWLAGMGLALGDFAESYFYSDSVNDVPLLEAVTRPIAANPSPGLREIAQARGWQVIDLFDHLEDAKS	soluble
MFKVLAEAFASARLRLGAILFSPQSLAFLPAFCLGLYWYGGETALMITALVFPVFFLVARAKLAETVTTSRQDSVLGVMQPDGFQDIVAARFREARAGGLISTVFQIEIDDHTSLVERHGQRAAEVISTTSADRIAAVLRDRDAVTHLDTFKYAVCLEPVRQMDLELCIQLAGRIQAALEEPIALDATAVCITSSVGFCQQTKVLSRSGEAWLAAAGHALREAHLNGPGAIRAYSEKMQQKSEIRAELREEVAQALEKGQIKPWFQPQISTDTGLVTGFEALARWNHPKRGMVPPGAFLTAIEQAGMLEKLAEVMIFHAFTALKAWDSAGVCVPQVGVNFAGPELSNPKLVDKIIWELDRFDLAPERLAVEVLETVVANSPDDTITRNINGLSKLGCRIDLDDFGTGHASISSIRRFSVSRIKIDRSFVIKADRDPEQQRMISAILTMAERLEVETLAEGVESVGEHALLAQLGCDHVQGFGIGKPMPFDQTLDWIASHNAKLQATPQILPNKLRLEHHHHHH	soluble
MIFAYNKEQVGDVLLVILEDTKDIKRSVERKGKVARVTADETGKTLAWNIFEASSLIDIEGNGQVFLSDQDVAILNEELAKEGFEERLENTQGPVFVVGQIDEMVPHPDSDHLNICQVNIGDKKVQIVAGAPNASPGLKTIVALPGAMMPSGALIFPGKLRGEDSYGMMCSPRELALPNAPQKRGIIELDDSAVVGEAFDPAKHWKRLEHHHHHH	soluble
MGSDKIHHHHHHMVSKLLALEAYPKLKDIDFRLLRAVELNMRHHKWVPLEDIARFARMDLESASYRLGKLDKLGLVIRRSDIGYIGYQLTIHGYDALAIRAFAKKGVIEAISTTHIGVGKDADVYVAITPQGEKVAIKFNRIGERTSARKAYYHSDVFADKHHKSWLYVSRLIAKKEHEALVLLSSFAKVPKPIAWNRHAIVMEFIDGVELAELRDTDLTKEEAEEILGKVLDEYEKIVKFGIVHGDMSEFNIVITKDNDILIIDWAQYLTCANPESLGLLKRDISVLLNAFRRRWGVKRDFEEEWKRFYEAWQIGRREKEES	not soluble
MDIRQLQFFVAIVRFGSFTKAAERLRVAQPAVSMAMKRLEEELDLVLFNRQERKVSLTAEGEIFLRHAEKILEEVASTETEMEELRGLAKGEVRVGIPPMMSAYFFPQIIRDFSNRYPELHLSVSGEGASKIQKMILDGELDMGVIAGASFPDTLELRRFLREEVIVCVPKNHHLAEMERLPLQEFARHPLIFYKEGYYLRELVFDVMRGAGLNPAIRFETNLYTLVKSLIRKGMGISVFLRMVVEEDDDLEAIPLDPPLYLDLQIAWKKYGYLSRANRAFVDFLLEQSARAHQPVGSCPARLVPAG	not soluble
MGSDKIHHHHHHMVSYKILSVANKLKNIRDKYGLSQEDLAGNEITRNLISQIEHNKANLTRSAAEIMLKNLKKICDKKNVQVDEDINYLMEDEKSQAIKVLDKYIDDLRDLTIYKDNVFINKLREVEDFLVTWDFRDKKITIFELAGDYFSSTNDFYNASLYYEKAKALIDINIYSDNIVHILRKLSMTYYYMLRYQDDINCCEFALKQFKNMDEEYRCIFLFNSSLCYGQLKKYDLALKRLNEVESIIKNIDQNKYYEVLIQKAICYQWMKEYQKSLDIYNKLLESIDKSDYEKYLFILVNSSDIYVENSNFEKAESNLRIILENINNLNESSTLLPSTYLEMSRILKKLGYTKDAELYCLKSLNYAKRNTHYYLVNDIYGELLDIYKTLNVPEKVQTIKDEFFSNSSRDKNLNSKLMFKLLDFYFATNDIHSIKEIYDFSKNFIQERMINLCY	not soluble
MSSTAGGEVSINSGDLLLGTLSTSITKLEQQIRATQLSQKKLNSDCETMAEYLRDLSEYKQPVDLLPYVGKLNDSTIRVNNTHQKLDDLLERLTKLQRQIARETYKKKNSIKEQEPPVQPEN	not soluble
SLRYASDFEEIAVLGQGAFGQVVKARNALDSRYYAIKKIRHTEEKLSTILSEVMLLASLNHQYVVRYYAAWLERRNFVKPMTAVKKKSTLFIQMEYCENRTLYDLIHSENLNQQRDEYWRLFRQILEALSYIHSQGIIHRDLKPMNIFIDESRNVKIGDFGLAKNVHRSLDILKLDSQNLPGSSDNLTSAIGTAMYVATEVLDGTGHYNEKIDMYSLGIIFFEMIYPFSTGMERVNILKKLRSVSIEFPPDFDDNKMKVEKKIIRLLIDHDPNKRPGARTLLNSGWLPVKHQDEVIKEALKSL	soluble
MKALALIAHDAKKDEMVAFCLRHKDVLARYPLLATGTTGARIQEATGLAVERVLSGPLGGDLQIGARVAEGKVLAVVFLQDPLTAKPHEPDVQALMRVCNVHGVPLATNLVAAEALIAWIRKGTPQ	soluble
MGSDKIHHHHHHMSTSPLYYAKKTQELCALSDVYITLNRMLSSDGCSLEQLADAIAYEPAIAASILKIANSAMFSMPRKIDSLSKALTILGIKEVKKLVNAYGITAAFSNLDPNVVDMDKFWEISVDCALICQYFAKNKQIPNTDNIFLSGLFHNLGMLAMISSEPAKVRYCEGYDRDETPWFRQNQVFGFTFADCTTELLKLWDLPDSIIQPIAEFNGAEHEPLPDNSKLLYMASRLAVINADPGLYAKEALIDKAILDDLGIESSDMSQSLEYCNEQAMELLATFPIQGRKSSE	not soluble
MGSDKIHHHHHHMIPLSRPDINEQDIERVVEVLKSGRLSLGEYTKRFGEMVAEYTGARFGWAVSSGTAALHLILESLDIDEGDLILVPSFTFIASVNVILMKRAIPVFVDVDERTLNVSPETLEEAVKRCLKGFKQGNIEIKGKPRLFMAVDVFGHPLDWDGILDVCQRYGIAVVEDSCEALGSEYKGRKVGTFGVAGAFAFYPNKQITTGEGGVVVTNDEKIHTAVKSMSNQGRGEGDEWLYHVRFGYNYRIDEMSAALGCSQMERIDEIVEKRAEAAERYSKMLKEFSWVKVPVVEDYVTKMSWFVYVVRLEGPDRNRVMRYMEEKGVQVRNYFYPVHFQPFYEKLFGSMKGLLPVTERESEKTLAIPFFTSITESEQKTVVEILREAVERVG	not soluble

Source: the DeepSol protein solubility set
